Results as given in the DeepSol protein solubility set.

Assay: soluble on expression in E. coli; label from the status in PepcDB or PDB records

| Sequence | soluble on expression in E. coli |
| --- | --- |
| MEEIWLSCHALVFHTTPTQRLCVGWGELAVGRFVKMAAAPAPEMTPRLDVSKNATDPDSLTDHGFQYSRHRPVITDHKRFDRLVGFSIKQSNVELAAEAIKQAATVWCLTEKKSDKRDEDSVKFLATYLYKESLYWGKIDPRRALQRATAESWLGSQSFAPTSARTYKAVLHTAGRVLYPAEFPPANRYSNPRAKPVDPASVELIDELYGVAATLPAVHRLRLQLILDLTTQSGLRSAEVLDLRGSDVTARILDTGERIALVRVHR | not soluble |
| MGSDKIHHHHHHMIPLEHRYAQIEKAITYIDENFRAHPSVDEIAQNVGMSKYHFIRVFKEYAGVTPKQFLHCVTLNYAKEHIKESRSILESSLDIGLSSSSRLHELFVNLIGVTPREWRERGRGVLVTYGFGQTPFGEALIGFTDKGICYLGLMSDNKLEILGRFYELWGEAILEYDEKAAQKYLGYIFDRGEEGSPWNLGTNSQVNAWKALINLSRHLEDRVEGLIPCCGIISRSGAMSGHRWRIERGAALSLLDDIREKGSFGFSDNIDL | not soluble |
| MQVIIISGLSGSGKSIALKVLEDSGYYCVDNLPASLLVVLINHLQTQQHAYVAVAIDMRSGENITVLPWQLKMIDKSIQIKFIFLEARTETLMQRFSETRRRHPLSDKNITLEEAIRREREALATLTGLGHHIDTSSLRPNVLRAFIKDFIADSRSPSQLTLLFQSFGYKHGIPLDADLVFDIRCLPNPFYDPQLKELTGHDPEVIRFMESQPDASKMLRDISSFLGTWLPAYIRDNRAYLTVAIGCTGGQHRSVYFAEKLALHFHDSAHVLVRHRGLAEYKPHYARR | not soluble |
| GPGSMVLIECKRLPKDEYSKDYDVFLVSMPGSTNIGEATDALQKMRNTRVRIKWMCAAAKQLAKDFCSDEQKHHLLGAVEDAERYMAIERAENRQLCSQEDLDAHIAAFKGSAMILFPAECSGTDAVKRLALVLDDENTTDLERSKAHRLLSIIDDGAATEDILQGPAVMWWSGKPLDRNADFTKYVGKNEKTKITMKLAAKDAPPPPREPAVDAKTQSEMMAFYFKKQEEMKKLIEDEDLTYGNSAWADPRGLRSQLHGFDGVKYKPG | soluble |
| MGSDKIHHHHHHMNIRIGCSGWYYPHWAGKFYPSDLNKSEWFRYYAQKFDTVEINSTFYSFPNAARVRSWVKGSPENFVFSVKVNRTITHVKRLKDCDEEIGLFYEIIGSLGKMLGCVLFQFPPSFKYSHDNLIMIEKALDQRFCNVVEFRNISWFSEDARCDLEKSDLHVVAVSSERIPLWIKEDSVVYVRLHGNVNGYATDYNEEYLTDLAQRIIDVKPQSLYVYFNNDYSGYAPKNAIMLKSIINNLIL | not soluble |
| MSLESKPVVFHDVPQDHWAFEAISDLGNAGIIAGYGHGIFGLGDDVTREQVAALIYRSMEGIEEKEEYENPYGDLDEHGSTLFLEEILALTEMGIFQGDEQGNFRPKDTLTRAEMAQVIATAFDLEVKAPHSFNDVPANSWAKDAISAVQSNQIAAGIGQGKFAPEMKVTREQYAQFLYNALTNEHAEEGHHHHHH | soluble |
| TSQIRQNYSTEVEAAVNRLVNLHLRASYTYLSLGFFFDRDDVALEGVGHFFRELAEEKREGAERLLEFQNDRGGRALFQDVQKPSQDEWGKTQEAMEAALAMEKNLNQALLDLHALGSARADPHLCDFLESHYLDKEVKLIKKMGNHLTNLRRVAGPQPAQTGAPQGSLGEYLFERLTLKHD | soluble |
| MDVRIRAIDERSYLNIISAIFKDLGLPQLIDRLVPVDRQCQTRTSDIVSLIILDILSGRQALVHLERWAHDIDWPKWIRPGPDPSWFNDDAIARHLDRLYEANIHQVLSSCLVQIDKKEGLSLRVFHADATDKTVYGAYESDSSDVLHITYGYNRHHRWQKPIGFGLIGNEDGIPFYGDVHDGNLSDKAWNPEVLSRIHEQFKQAKIDDEWMYVADSVAMTKETLAQTKAANAFLITRGPSSLRIVKTALSEADAQPDSAWSAPLRWPRKTAPRIGYGKRPRPMKAAPYG | not soluble |
| TKDFSWTTAFNLSHNKNKILKLADLPWFVDGRYVRKEGYPFNTIYLREYAGVDPETGSALYYDNQQDENGNYTKNKVTDPGQASPIPLKDITPTISGGFMNTFNYKFIDLSFNLSYSFGGYSYDNASYILQDDGYSVISNKSTEQRRRWQKPGDITDVPRFVYGNKKGGNYNSSRAIHSTDHIRLKSLILGLNAPKAWLQKLGIGNARIYFSGTNLLTWAAYDQYDPEMSGVVGFYTPPLKTYAFGLELKF | not soluble |
| MTKTVEMVITGAQVLNVYTREFEATSLWIDHGRIISNLRDEPYIAAQHVDATGQWIVPGMIDAHVHMESSMVAPSELGKVLLQHGVTTIATDPHELANVAGLEHHHHHH | not soluble |
| MGSDKIHHHHHHMAKFQSYVICTSPRSGSTLLCNMLAATGVAGKPKSYFHHGSITDWLSYLNLDINPSLPESDLLAAIFEAAVETGRNGTGLFGLRLQRHSFDLFVEKLAVLYPTLASDRQRIEAAFGSTLFIHLTRLDKVQQAVSYVKAQQTGLWHRAPDGTELERLSAPRDPIYDAAKIHASYDEFIQYDRAWQSWFDMQGIQPLRITYEALCADPIASLKDVLVQLGVNGEAASSVVPGTAKLADGINQSWETRFRTEHLHSDPL | not soluble |
| MGSDKIHHHHHHMNHIGTREIATERLTLRRFEIEDAENMFYNWANDPEVTKYLTWPAHESVDTTETILKEWISKYDEKDFYQWAIELNDLEQPIGTISAIKTDERVESVEIGYCIGKRFWNNGYMTEALTAIIRFFINEVGAGRIWARHDTENPNSGKVMVAAGMDYEGTLRHAGFNNQGICDEAVYAKVRSAALDEEPEEETPEQQAVTTKVMGEDGVMRNVISDETMEYVGILAKLELSPEEAEAAKKDMADMLDYIDKLEELDTSGIEPMSHVFPVNNVFRDDVVTNGDGSEATLANAPVKKDGGFKVPKTIGE | not soluble |
| TNLFHTYQYGKETMRGGSELTLKQSGAPTDQVTHENKSGLDKAYITQWSYGIGETWSLLIPDIKGGSSGYLGYDEKVMETVNPSYAQAIARMNRYWGDQP | not soluble |
| MNDIEAAFHQYFEIIDADTPELLKTVFDLRYRILCVHNVIPGFDTNNYPNELESDQYDSHSIHFLLRHRPTNTFIGTTRLILPNPLDPMDKFPTELNTHFYPGFVLDSSSRKHTTEVSRFAILSDFFKRKGERNMLSQSTEIGCKAQERRRFPHPMLGLVVGLIQLCARNNIYHLISAMEPALNKLLGFYSLQMNPIGPPADYHGLRTPYYLYLPDLLDRMYQDHRSLWELITDHGRIWPMNLACIHQKTLKTAYTDNVYISE | not soluble |
| MAELACFVSFSLTEDKVVWYPINKKAVQTMLCAKVEKDQRSNYYDTILYGVAPPPEFRNRFKTNERYGLDYESDQYTELVNLLADTLNMVSMPTEKFQFDIVKTVVQVRHLENLLCRIKDVNDILNANVKLRVKAVMIACNLVNETETTPLTESNDIVYQDSYFTITKLDYSNHKLLPLMADEYKITINTKTDIPDRNQTAFAAYIRYNFNKFAAISHGKRHWRLVLHSQLMSHAERLDRKIKSDKKHGRQFSYDDGDMAFVHPGWKTCIGQLCGGTTFEVAKTSLYSIKPSKTVRTATNKIESDLISMVGN | soluble |
| MGSDKIHHHHHHMINHHPKFELIQAFVNGDLPASLSAGIAIHADMCPVCQQTIAQFTEQVAENSFEEEYLDRFIIDDNEALEAIATIDFDHMIDNIVESSDIAVVVPKVEKTVSFNDTTYTLPAALNSMEMGKHAQIGKLTRARIQLNENEIHSSLLHIQPGGGVPEHTHKGFELTVLLAGSFHDESGEYVKGDFIMLDSSHQHHPISSNGCLCYTVANDALHFTHGINKLLNPIGSFIY | not soluble |
| MSPGAWPRPRVVVSACLGFAAVRYSGELIPDKVVAALKEHVDFVPVCPEVEIGLGVPRPVVRLVRGEGGGPRMVQPKTGEDLTERMRAFSQRFLQGLGEVEGFLLKNRSPSCALKDAKRYAHAEGGGVVGKGPGLFAQAVEEAFPLLPKEDEGRLTNPRIRAHFFTRIFALARLRRVEDLPGLMAFHARYKLLLLAYNQKEARALGRLLAGAKGRPFPEVHGAYEEGFLRATERPWRLGAMADALLHAFGHFKKALAPREKAHFLDLLADFREERLPLEAPLALLASWARRFAEPYVEAQALLEPYPRALMHVPGA | soluble |
| GPGSMTEKPAKEPPLPRDLKAQFDVLAGTRWDGVGDDADAAEQLSQLRQEWKALGNACYGKGYFLAAIRCYSRLLEVPGGDTAQIRSNRSAAYLQSPMLVGPSLALKDAEKAVELDPQWFKAHLRVGDAHRKRGHFAEAEAAYREALARQPECATALAGLRALQVESAGLPAAAATFPRGHAERTPYHNAPPSPRSLSSRTTAHAVAVAQAKEEELQLTQEQLVHKWKADISTREGRTGCRPRQASLSQADRQHGAAIKQALLARFRDKLESNGEFSAILRNRCEEAMLRGEGINYRDADKLRNTYSHATNGIGLGISSDAYKEYTGRVDHRTW | soluble |
| MGSSHHHHHHSSGLVPRGSHMKAMNKVWVIGDASVDLVPEKQNSYLKCPGGASANVGVCVARLGGECGFIGCLGDDDAGRFLRQVFQDNGVDVTFLRLDADLTSAVLIVNLTADGERSFTYLVHPGADTYVSPQDLPPFRQYEWFYFSSIGLTDRPAREACLEGARRMREAGGYVLFDVNLRSKMWGNTDEIPELIARSAALASICKVSADELCQLSGASHWQDARYYLRDLGCDTTIISLGADGALLITAEGEFHFPAPRVDVVDTTGAGDAFVGGLLFTLSRANCWDHALLAEAISNANACGAMAVTAKGAMTALPFPDQLNTFLSSHSLAQAMTVK | soluble |
| MPQNEHIELHRKRHGRRLDHEERQRKKLARAAHDRSQMAKTLRGHKAKLYHKKRYSEKVEMRKLLKQHEEKDQKNTVEQPDKGAVPAYLLDRQQQTSGTVLSNMIKQKRKQKAGKFNVPIPQVRAVSDAEAFKVVKTGKTNRKGWKRMVTKVTFVGESFTRKPAKFERFIRPMGLRFKKAHVTHPELQTTFHLPIVGVKKNPSSQMYTSLGVITKGTILEVNVSELGMVTQGGKVVWGKFAQVTNNPENDGCINAVLLI | not soluble |
| MSLRQRFVLDTTAITDAGLRIKEGYESLCESAAEVLDLIALARLKLDISCYIPYPSVYTELTSFLKRYGCDEEIFTKLDTWLVKKTPNRYEVKIPAAIFYEYIITVRQKMNRGRRLAEEYILESSAITAKLEDKSKIEEEIGALISKFRDKYRAVMRQGILDSAPDLDVLLLAKELEAGVVSSDAGIRKWSERLGLRFVEAAKFPRMLKEYLKLMGSKDIVGWFESEEDEGHHHHHH | not soluble |
| MGSDKIHHHHHHMTSKINKIVNGPIPDSFLFDESKRLDSLKFDGTNLEVLDQLLLPHEFKYIPVEGVSDAFAVIKSMQVRGAPLIAVVGSLGLLLEIQKASELDSESIIQKINFLISSRPTAVDLRNSLNGLKPILESQDYSDVVKLEKCRSYLLNVYTDEKLQNRILVWNAYQELLSAFPDKEKLTVMTICNTGSLATISWGTALGVIRALHSENRLKLVYVLETRPYNQGIRLTSIELLHGEVPFKLITDSMAAWAMKNHQVDCVLTGADNVARNGDTANKIGTYMLAVLCKHHNINFYPVVPFTTINKNIATGEEIKIEERPSAEMLRVNGVLIGNSECPVWNPAFDVTPAHLITKILTDFGNWPPEMLEQQIPK | not soluble |
| MKVWITGAGGMMGSHLAEMLLAAGHDVYATYCRPTIDPSDLQFNGAEVDITDWCSVYDSIATFRPDAVFHLAAQSYPAVSWARPVETLTTNMVGTAIVFEALRRVRPHAKIIVAGSSAEYGFVDPSEVPINERRELRPLHPYGVSKAATDMLAYQYHKSYGMHTVVARIFNCTGPRKVGDALSDFVRRCTWLEHHPEQSAIRVGNLKTKRTIVDVRDLNRALMLMLDKGEAGADYNVGGSIAYEMGDVLKQVIAACKRDDIVPEVDPALLRPTDEKIIYGDCSKLAAITGWQQEICLTQTIADMFDYWRSKSESALMV | not soluble |
